Target: T1, Aβ1–42 peptide (UniProt P05067 672-713)
T1 construct: amyloid beta 1-42, cut product of the amyloid beta precursor protein (APP); For neurons and isolated mitochondria the peptide was prepared as oligomeric Aβ (HFIP film, DMSO, HAM'S F-12, 4 °C for 24 h); for the pull-down the methods say only 'Aβ peptide'; also called amyloid beta; oligomeric Aβ1–42; source: synthetic peptide, bought: GenicBio
Assay: pull-down; GST-tagged OSCP on glutathione agarose as bait, incubated overnight at 4 °C with Aβ peptide; immunoblotting or coomassie staining
Conditions: both partners purified

B1: GST-tagged OSCP (oligomycin sensitivity conferring protein), wild type (natural protein, human, UniProt P48047 24-213, looked up)
chain: FAKLVRPPVQVYGIEGRYATALYSAASKQNKLEQVEKELLRVAQILKEPKVAASVLNPYVKRSIKVKSLNDITAKERFSPLTTNLINLLAENGRLSNTQGVVSAFSTMMSVHRGEVPCTVTSASPLEEATLSELKTVLKSFLSQGQVLKLEAKTDPSILGGMIVRIGEKYVDMSVKTKIQKLGRAMREIV
notes: oligomycin sensitivity conferring protein (OSCP) subunit of mitochondrial F1FO-ATP synthase, human cDNA (Gene Name ATP5O, NCBI Gene ID 539) in pGEX-4t-1; it may tell the limits of the construct; also called GST-OSCP; wild-type OSCP
**Q.** Does B1 bind?
**A.** binds

Reference: publication PMC5494197, “Deregulation of mitochondrial F1FO-ATP synthase via OSCP in Alzheimer’s disease” (Nature Communications, 2016)
